Measurements as given in patent publication US20220259593A1, “CONTROL OF MAMMALIAN GENE DOSAGE USING CRISPR” (The Regents of the University of California, priority 2019, published 2022).

System: K562 CRISPRi cells
Experiment: Constant region variant library pooled growth screen, K562
Format: cell-based, human
Settings: sgRNA constant region variants; activity relative to the original, un-modified constant region cr995
How it was run: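 Cells were selected with puromycin for 2 days and then kept in RPMI-1640 spinner cultures, with duplicates handled separately. Targeting sequences comprised 3 sgRNAs per essential gene for 10 genes plus six non-targeting controls. Activities were normalized against pairing with the unmodified scaffold.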

B1: cr564 (nucleic acid)
guide: GTTTAAGAGCTAAGCTGGAAACAGCATAGCAAGGTTAAATAAGGCTAGTCCGTTATCAACTTGAAAAAGTGGCAGCGAGTCGCTGCT
modifications: listed as DNA, chemistry not fully specified
- Mean relative activity: −0.001952

B2: cr921 (nucleic acid)
guide: GTTTAAGAGCTAAGCTGGAAACAGCATAGCAAAGTTAAATAAGGCTAGTCCGTTATCAACTTGAAAAAGTGGCACCGAGTCGGTGCT
modifications: listed as DNA, chemistry not fully specified
- Mean relative activity: −0.002203

B3: cr817 (nucleic acid)
guide: GTTTAAGAGCTAAGCTGGAAACAGCATAGCAAGGTTAAATAGGGCTAGTCCGTTATCAACTTGATAAAGTGGCACCGAGTCGGTGCT
modifications: listed as DNA, chemistry not fully specified
- Mean relative activity: −0.002514

B4: cr847 (nucleic acid)
guide: GTTTAAGAGCTAAGCTGGAAACAGCATAGCAAGCTTAAATAAGGCTAGTCCGTTATCAACTTGAAAAAGTGGCACCCAGTGGGTGCT
modifications: listed as DNA, chemistry not fully specified
- Mean relative activity: −0.002682

B5: cr595 (nucleic acid)
guide: GTTTAAGAGCTAAGCTGGAAACAGCATAGCAAGTTTAAATAACGCTAGTCCGTTATCAACTTGAAAAAGTGGCACCGAGTCGGTGCT
modifications: listed as DNA, chemistry not fully specified
- Mean relative activity: −0.002984

B6: cr065 (nucleic acid)
guide: GTATACGAGCTAAGCTGGAAACAGCATAGCAAGTTTAAATAAGGCTAGTCCGTTATCAACTTGAAAAAGTGGCACCGAGTCGGTGCT
modifications: listed as DNA, chemistry not fully specified
- Mean relative activity: −0.003148

B7: cr058 (nucleic acid)
guide: GTTGCAGAGCTAAGCTGGAAACAGCATAGCAAGTTTAAATAAGGCTAGTCCGTTATCAACTTGAAAAAGTGGCACCGAGTCGGTGCT
modifications: listed as DNA, chemistry not fully specified
- Mean relative activity: −0.003151

B8: cr894 (nucleic acid)
guide: GTTTAAGAGCTAAGCTGGAAACAGCATAGCAACTTTAAATAAGGCTAGTCCGTTATCAATTTGAAAAAATGGCACCGAGTCGGTGCT
modifications: listed as DNA, chemistry not fully specified
- Mean relative activity: −0.003408

B9: cr122 (nucleic acid)
guide: GTTTAAGAGCTAAGCTGGAAACAGCATAGCAACTTTAAATAAGGCTAGTCCGTTATTAACTTGATAAAGTGGCACCGAGTCGGTGCT
modifications: listed as DNA, chemistry not fully specified
- Mean relative activity: −0.003408

B10: cr235 (nucleic acid)
guide: GTTTAAGAGCTAAGCTGGAAACAGCATAGCAAGTTTAAATAAGGCTAGTCCGTTATCAACATGAGAATGTGGCACCGAGTCGGTGCT
modifications: listed as DNA, chemistry not fully specified
- Mean relative activity: 1.027

B11: cr233 (nucleic acid)
guide: GTTTAAGAGCTAAGCTGGAAACAGCATAGCAACTTTAAATAAGGCTAGTCCGTTATCAACTTGAAAAAGTGGCACCCAGTGGGTGCT
modifications: listed as DNA, chemistry not fully specified
- Mean relative activity: −0.003511

B12: cr053 (nucleic acid)
guide: GATTCAGAGCTAAGCTGGAAACAGCATAGCAAGTTTAAATAAGGCTAGTCCGTTATCAACTTGAAAAAGTGGCACCGAGTCGGTGCT
modifications: listed as DNA, chemistry not fully specified
- Mean relative activity: −0.003704

B13: cr686 (nucleic acid)
guide: GTTTAAGAGCTAAGCTGGAAACAGCATAGCAACTTTAAATAAGGCTAGTCCGTTATCAACTTGAAAAAGTGGCACCGAGACGGTGCT
modifications: listed as DNA, chemistry not fully specified
- Mean relative activity: −0.004019

B14: cr179 (nucleic acid)
guide: GTTTAAGAGCTAAGCTGGAAACAGCATAGCAAGGTTAAATAAGGCTAGTCCGTTATCAACTTGAAAAAGTGGCACTGAGTCAGTGCT
modifications: listed as DNA, chemistry not fully specified
- Mean relative activity: −0.004493

B15: cr033 (nucleic acid)
guide: GTTAAAAAGCTAAGCTGGAAACAGCATAGCAAGTTTAAATAAGGCTAGTCCGTTATCAACTTGAAAAAGTGGCACCGAGTCGGTGCT
modifications: listed as DNA, chemistry not fully specified
- Mean relative activity: −0.004656

B16: cr673 (nucleic acid)
guide: GTTTAAGAGCTAAGCTGGAAACAGCATAGCAACTTTAAATAAGGCTAGTCCGTTATCAACTTGAAAAAGTGGCACCGTGTCGGTGCT
modifications: listed as DNA, chemistry not fully specified
- Mean relative activity: −0.005072

B17: cr589 (nucleic acid)
guide: GTTTAAGAGCTAAGCTGGAAACAGCATAGCAAGTTTAAATAATGATATTCAGTTATCAACTTGAAAAAGTGGCACCGAGTCGGTGCT
modifications: listed as DNA, chemistry not fully specified
- Mean relative activity: −0.005108

B18: cr802 (nucleic acid)
guide: GTTTAAGAGCTAAGCTGGAAACAGCATAGCAAGTTTAAATAACGCTAGTCGGTTATCAAGTTGAAAAACTGGCAGCGAGTCGCTGCT
modifications: listed as DNA, chemistry not fully specified
- Mean relative activity: −0.005377

B19: cr383 (nucleic acid)
guide: GTTTAAGAGCTAAGCTGGAAACAGCATAGCAACTTTAAATAAGGCTAGTCCGTTATCAACTTGAAAAAGTGGCACCTAGTAGGTGCT
modifications: listed as DNA, chemistry not fully specified
- Mean relative activity: −0.005505

B20: cr036 (nucleic acid)
guide: GCTAAAGAGCTAAGCTGGAAACAGCATAGCAAGTTTAAATAAGGCTAGTCCGTTATCAACTTGAAAAAGTGGCACCGAGTCGGTGCT
modifications: listed as DNA, chemistry not fully specified
- Mean relative activity: −0.005679

B21: cr882 (nucleic acid)
guide: GTTTAAGAGCTAAGCTGGAAACAGCATAGCAAGTTTAAATAAGGCTAGTCCGTTATCAACTTCAAAAAGTGGCACCGAGTCGGTGCT
modifications: listed as DNA, chemistry not fully specified
- Mean relative activity: 1.027

B22: cr034 (nucleic acid)
guide: GCATAAGAGCTAAGCTGGAAACAGCATAGCAAGTTTAAATAAGGCTAGTCCGTTATCAACTTGAAAAAGTGGCACCGAGTCGGTGCT
modifications: listed as DNA, chemistry not fully specified
- Mean relative activity: −0.007191

B23: cr329 (nucleic acid)
guide: GTTTAAGAGCTAAGCTGGAAACAGCATAGCAACTTTAAATAAAGCTAGTCTGTTATCAACTTGAAAAAGTGGCACCGAGTCGGTGCT
modifications: listed as DNA, chemistry not fully specified
- Mean relative activity: −0.007607

B24: cr135 (nucleic acid)
guide: GTTTAAGAGCTAAGCTGGAAACAGCATAGCAAGTTTAAATAACGCTAGTCGGTTATCAAATTGAAAAATTGGCGCCGAGTCGGCGCT
modifications: listed as DNA, chemistry not fully specified
- Mean relative activity: −0.00878

B25: cr942 (nucleic acid)
guide: GTTTAAGAGCTAAGCTGGAAACAGCATAGCAAGTTTAAATAAGGCTAGTCCGTTACCAACTTGAACAAGTGGCACCGAGTCGGTGCT
modifications: listed as DNA, chemistry not fully specified
- Mean relative activity: 1.087

B26: cr056 (nucleic acid)
guide: GTGTCAGAGCTAAGCTGGAAACAGCATAGCAAGTTTAAATAAGGCTAGTCCGTTATCAACTTGAAAAAGTGGCACCGAGTCGGTGCT
modifications: listed as DNA, chemistry not fully specified
- Mean relative activity: −0.009512

B27: cr583 (nucleic acid)
guide: GTTTAAGAGCTAAGCTGGAAACAGCATAGCAAGTTTAAATCAGGCTAGTCCATTATCTACTTGAAAAAGTGGCACCGAGTCGGTGCT
modifications: listed as DNA, chemistry not fully specified
- Mean relative activity: −0.01013

B28: cr661 (nucleic acid)
guide: GTTTAAGAGCTAAGCTGGAAACAGCATAACAAGTTTAAATAAGGCTAGTCCCTTATCAACTTGAATAAGTGGCACCGAGTCGGTGCT
modifications: listed as DNA, chemistry not fully specified
- Mean relative activity: −0.01151

B29: cr784 (nucleic acid)
guide: GTTTAAGAGCTAAGCTGGAAACAGCATAGCAAGTTTAAATAATCCTAGTTCGTTATCAACTTGAAAAAGTGGCACCGAGTCGGTGCT
modifications: listed as DNA, chemistry not fully specified
- Mean relative activity: −0.01213

B30: cr515 (nucleic acid)
guide: GTTTAAGAGCTAAGCTGTAAACAGCATAGCAAGTTTAAATAAGGCTAGTCCGTTATCAACTTGAAAAAGTGGCACCGAGTCGGTGCT
modifications: listed as DNA, chemistry not fully specified
- Mean relative activity: 1.027
